Laboratory results reported in patent US20130052177.

Columns and labels:
[1] = biological target: KRS (lysyl-tRNA synthetase, full-length 1-597) (Homo sapiens) (UniProt Q15046); assay: EMSA; conditions: affinity from percent free tRNA; 0.1 uM tRNA; 20 mM HEPES pH 7.5, 20 mM KCl, 5 mM MgCl2, 2 mM DTT, on ice
[2] = test system: Flavo-KRS (monomeric full-length KRS with E. coli flavodoxin inserted at G310) (Homo sapiens / Escherichia coli fusion); assay: EMSA; conditions: affinity from percent free tRNA; slightly weaker than native KRS; 0.1 uM tRNA; 20 mM HEPES pH 7.5, 20 mM KCl, 5 mM MgCl2, 2 mM DTT, on ice

Chain of KRS (lysyl-tRNA synthetase, full-length 1-597) (Homo sapiens) (Q15046 whole entry, the tested form may be a part): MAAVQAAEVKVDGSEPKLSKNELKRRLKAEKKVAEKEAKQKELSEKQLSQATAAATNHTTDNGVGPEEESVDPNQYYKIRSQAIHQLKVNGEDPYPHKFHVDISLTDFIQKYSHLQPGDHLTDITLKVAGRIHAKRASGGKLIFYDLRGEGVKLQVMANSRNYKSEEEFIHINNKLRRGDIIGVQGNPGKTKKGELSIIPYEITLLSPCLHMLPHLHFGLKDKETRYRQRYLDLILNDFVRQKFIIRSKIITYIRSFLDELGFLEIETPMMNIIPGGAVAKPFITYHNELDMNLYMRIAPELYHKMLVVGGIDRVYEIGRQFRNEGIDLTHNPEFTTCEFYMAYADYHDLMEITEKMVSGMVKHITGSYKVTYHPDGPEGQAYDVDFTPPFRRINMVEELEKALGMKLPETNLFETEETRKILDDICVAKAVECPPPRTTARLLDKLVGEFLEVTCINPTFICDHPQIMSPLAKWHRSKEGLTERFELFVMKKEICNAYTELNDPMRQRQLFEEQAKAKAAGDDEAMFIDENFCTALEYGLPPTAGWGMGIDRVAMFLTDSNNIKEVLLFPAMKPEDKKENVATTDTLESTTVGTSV

Substance: human tRNALys3 (in vitro transcript)
- Kd [1]: 870 nM
- Kd [2]: 1210 nM
